Measured values from publication PMC12453405.

Legend:
Test in all cases: quartz crystal microbalance (QCM); purified N protein injected first onto the coated quartz crystal, then GST, then Grb2-GST; PBS pH 7.4, flow 60 μl/min; Tris-HCl pH 8.0 between injections; binding ratio = amplitude difference of Grb2-GST before and after binding over the amplitude of N protein
[1] = molecular target: mPDCoV-N (P61A/P292A) (porcine deltacoronavirus (PDCoV))
[2] = molecular target: PEDV-N (His-fused N protein of Alphacoronavirus PEDV) (PEDV)
[3] = molecular target: wPDCoV-N (His-fused PDCoV N protein) (porcine deltacoronavirus (PDCoV))

Q: “Grb2-GST (pGEX-Grb2) (from UniProt B6E241 1-217) (natural protein)” was tested. Which binding ratio [1] did it give?
A: Its binding ratio is 19.7%.

Q: What about the binding ratio [2] of the same substance?
A: The binding ratio was 23.5%.

Q: What about the binding ratio [3] of the same substance?
A: The binding ratio was 31.6%.
